Earlier results, collected in paper PMC9326902.

Molecular target: Hemoglobin (Homo sapiens) (UniProt P69905)
Sequence of UniProt P69905 (P69905 2-142, chain 1 of 2): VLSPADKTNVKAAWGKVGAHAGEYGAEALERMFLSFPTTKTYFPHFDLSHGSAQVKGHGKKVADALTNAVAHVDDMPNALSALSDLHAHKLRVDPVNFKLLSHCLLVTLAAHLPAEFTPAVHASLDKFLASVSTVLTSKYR
Sequence of UniProt P69905 (P68871 2-147, chain 2 of 2, further chain): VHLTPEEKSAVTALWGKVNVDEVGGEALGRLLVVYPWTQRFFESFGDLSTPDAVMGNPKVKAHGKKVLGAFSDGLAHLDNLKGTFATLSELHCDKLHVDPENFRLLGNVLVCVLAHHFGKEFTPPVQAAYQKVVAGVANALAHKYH

With IsdH N2 (from UniProt Q2FXJ2) as the substance, how does the Kd read?
Its Kd is 7.5 µM.
